Earlier results in patent publication US20250205311A1, “PHARMACEUTICAL COMPOSITIONS OF SEMAGLUTIDE AND THE METHODS OF USE THEREOF” (PENTIDE THERAPEUTICS LIMITED, priority 2022, published 2025).

Settings: oral tablet

N6,26-{18-[N-(17-carboxyheptadecanoyl)-L-glutamyl]-1 0-oxo-3,6, 12, 15-tetraoxa-9, 18-diazaoctadecanoyl}-[8-(2-amino-2-propanoic acid), 34-L-arginine] human glucagon-like peptide 1 (7-37) [semaglutide]
oral bioavailability: 0.4-1%
